T1: Leeuwenhoekiella blandensis NrdBi (wild type NrdB, radical-generating subunit of class I ribonucleotide … (Leeuwenhoekiella blandensis sp. nov. …, UniProt A3XHF9 1-427))
T1 construct: NrdBi, radical-generating subunit of the class I RNR of Leeuwenhoekiella blandensis sp. nov. strain MED217; GenBank EAQ51288; amplified from genomic DNA with primers from the start codon to the stop codon; ATP-cone 1-103, linker 104-106, core 107-398, C-terminus 399-427; pET-28a(+) construct with N-terminal hexahistidine tag and thrombin site; Oligomeric state depends on nucleotide: dimer with …
T1 sequence (looked up): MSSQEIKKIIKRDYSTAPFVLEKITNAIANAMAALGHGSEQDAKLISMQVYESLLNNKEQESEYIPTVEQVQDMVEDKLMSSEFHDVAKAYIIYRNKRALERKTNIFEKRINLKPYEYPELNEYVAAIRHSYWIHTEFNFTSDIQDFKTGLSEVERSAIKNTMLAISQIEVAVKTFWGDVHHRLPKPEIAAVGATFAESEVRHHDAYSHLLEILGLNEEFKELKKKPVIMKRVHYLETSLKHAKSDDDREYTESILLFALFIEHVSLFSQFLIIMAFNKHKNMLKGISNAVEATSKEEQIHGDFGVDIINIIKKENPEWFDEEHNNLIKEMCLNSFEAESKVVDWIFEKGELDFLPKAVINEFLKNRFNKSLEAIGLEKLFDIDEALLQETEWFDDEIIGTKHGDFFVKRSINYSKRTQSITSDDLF


How the values were obtained:
[1] = biological target: T1, Leeuwenhoekiella blandensis NrdBi (wild …); experiment: SEC; with 3 mM ATP in sample and buffer; Superdex 200 PC 3.2/30 at 7°C; 50 mM Tris-HCl pH 8, 50 mM KCl, 10% glycerol, 10 mM magnesium acetate, 2 mM DTT; proteins 20 µM each; eluted fractions analysed by SDS PAGE; details: both partners purified
[2] = biological target: the molecule itself; experiment: SEC; with 100 µM dATP; Superdex 200 10/300 GL at room temperature; 50 mM Tris-HCl pH 7.6, 150 mM KCl, 10 mM MgCl2; NrdB 10 µM, NrdA at rising concentrations
[3] = biological target: the molecule itself; experiment: crystal structure; NrdB 9.6 mg/ml with 20 mM MgCl2, 2 mM TCEP, 5 mM dATP; 0.2 M CaCl2, 0.1 M Tris pH 8.0, 20% PEG 600, 3% 6-aminohexanoic acid, 20°C; space group P1, one tetramer in the unit cell

stoichiometry N [1] | Binder | stoichiometry N [2] | stoichiometry N [3]
1 | Leeuwenhoekiella blandensis NrdAi (NrdA, catalytic subunit of class I ribonucleotide reductase) (enzyme, UniProt A3XHF8 1-600, looked up, NrdAi, catalytic subunit of the class I RNR of Leeuwenhoekiella blandensis sp. nov. strain MED217; amplified from genomic DNA with primers from the start codon to the stop codon; pET-nrdA with N-terminal hexahistidine tag and thrombin site; no cleavage is told for NrdA (theoretical monomer mass printed as 70.6 kDa); source: E. coli BL21(DE3), pET-28a(+), purified (HisTrap Ni Sepharose, gel …)) MRENTTKLENSTETNVQHTKDNDLLKARRDALQDATEKNTDEPSFDWLTEHSRSFLAAGYLSEGVSAEERIREIADRAEEILRMPGFSDKFYKYMGEGYFSLASPVWSNFGKKRGLPISCFGSHIDDDMGNILYTQSEVGMMSKLGGGTSGYFGKIRHRGAAVKNNGYASGAVHIMQLFDKMVDVVSQGSVRRGRFSPYLPISHPDIKEFLEIGTEGNSIQQLTHGVTVDSTWMQEMIDGDTDKREVWAKVLQRRGEMGYPYIFYTDNANNGKPDVYKDKGHDIYASNLCTEIMLPSSDEWSFVCVLSSINVLHYDKWKNTDAVETMVCFLDAVLTEFIDKLEEYRDSDNRDHRQTFMFMERAYNFAKSNRALGLGVLGWHSLLQSKRHAFDSQEAYDLNSEIFREIKQRSYKASEELAEKFGEPETLKGYGRRNATLNAIAPTTSSAFILGQVSQGIEPIWSNVYVKDIAKIKTTIKNPFLEELFEEKGMNTPEVWRSVRDNDGSVQHLEFLTEQEKDVFKTYAEIDQMAIIYQAANRQNHIDQGQSINLLVHPDMPIKEINKIHITAWKLGLKSLYYQHSMNAAQKFKQKKECVSCEA | 2 | –
– | Leeuwenhoekiella blandensis NrdB, thrombin-cleaved (used for crystallization) (enzyme, three additional residues (GlySerHis) left at the N-terminus from the thrombin cleavage site; NrdBi of Leeuwenhoekiella blandensis sp. nov. strain MED217; GenBank EAQ51288; Crystallized with 5 mM dATP, 20 mM MgCl2; two dATP per ATP-cone; metal site occupied by Ca2+ from the crystallization medium; also called thrombin-cleaved NrdB; source: E. coli BL21(DE3), purified (HisTrap, gel filtration), …) GSHMSSQEIKKIIKRDYSTAPFVLEKITNAIANAMAALGHGSEQDAKLISMQVYESLLNNKEQESEYIPTVEQVQDMVEDKLMSSEFHDVAKAYIIYRNKRALERKTNIFEKRINLKPYEYPELNEYVAAIRHSYWIHTEFNFTSDIQDFKTGLSEVERSAIKNTMLAISQIEVAVKTFWGDVHHRLPKPEIAAVGATFAESEVRHHDAYSHLLEILGLNEEFKELKKKPVIMKRVHYLETSLKHAKSDDDREYTESILLFALFIEHVSLFSQFLIIMAFNKHKNMLKGISNAVEATSKEEQIHGDFGVDIINIIKKENPEWFDEEHNNLIKEMCLNSFEAESKVVDWIFEKGELDFLPKAVINEFLKNRFNKSLEAIGLEKLFDIDEALLQETEWFDDEIIGTKHGDFFVKRSINYSKRTQSITSDDLF | – | 4

Reference: article PMC5794259, “Novel ATP-cone-driven allosteric regulation of ribonucleotide reductase via the radical-generating subunit” (eLife, 2018)
